Columns and labels:
[1] = system: 3×MBT domain of L3MBTL1; experiment: Triple SILAC pull-down, 3xMBT/3xMBTD355N ratio (cytoplasmic, nuclear and chromatin fractions of 293T cells); assay type: binding, human; conditions: for 3xMBT/D355N UNC Heavy: experiment with UNC0638 in heavy SILAC media; for 3xMBT/D355N UNC Light: experiment with UNC0638 in light SILAC media; for Protein Ratios 3xMBT/D355N: pull-down by 3xMBT vs 3xMBTD355N;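 as to all read-outs here: proteins quantified with MaxQuant, requiring at least two unique peptides and quantification in both label directions, normalized to the mean of proteins from a digested loading control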
[2] = target: T1, G9a and GLP (Homo sapiens, UniProt Q96KQ7+Q9H9B1); experiment: Triple SILAC pull-down after UNC0638 treatment of 293T cells, DMSO/UNC0638 ratio of protein captured by 3×MBT; assay type: cell-based; conditions: for Relative to UNC0638 UNC Heavy: UNC0638 in heavy SILAC media; for Relative to UNC0638 UNC Light: UNC0638 in light SILAC media; for Relative to UNC0638 Average: average of UNC Light and UNC Heavy experiments; for Protein Ratios DMSO/UNC0638: SILAC ratio of protein captured by 3xMBT, 293T cells treated 24 hours with UNC0638 at 2.5 μM or DMSO;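 as to all read-outs here: mass spectrometry (Q-Exactive) SILAC quantitation, DMSO/UNC0638 ratio computed after subtracting 3×MBTD355N mutant pull-down background, only proteins with at least twofold 3×MBT over mutant signal considered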
T1 construct: endogenous in cells; host or cells: HEK 293T
T1 sequence (Q96KQ7 2-1210 limits assumed): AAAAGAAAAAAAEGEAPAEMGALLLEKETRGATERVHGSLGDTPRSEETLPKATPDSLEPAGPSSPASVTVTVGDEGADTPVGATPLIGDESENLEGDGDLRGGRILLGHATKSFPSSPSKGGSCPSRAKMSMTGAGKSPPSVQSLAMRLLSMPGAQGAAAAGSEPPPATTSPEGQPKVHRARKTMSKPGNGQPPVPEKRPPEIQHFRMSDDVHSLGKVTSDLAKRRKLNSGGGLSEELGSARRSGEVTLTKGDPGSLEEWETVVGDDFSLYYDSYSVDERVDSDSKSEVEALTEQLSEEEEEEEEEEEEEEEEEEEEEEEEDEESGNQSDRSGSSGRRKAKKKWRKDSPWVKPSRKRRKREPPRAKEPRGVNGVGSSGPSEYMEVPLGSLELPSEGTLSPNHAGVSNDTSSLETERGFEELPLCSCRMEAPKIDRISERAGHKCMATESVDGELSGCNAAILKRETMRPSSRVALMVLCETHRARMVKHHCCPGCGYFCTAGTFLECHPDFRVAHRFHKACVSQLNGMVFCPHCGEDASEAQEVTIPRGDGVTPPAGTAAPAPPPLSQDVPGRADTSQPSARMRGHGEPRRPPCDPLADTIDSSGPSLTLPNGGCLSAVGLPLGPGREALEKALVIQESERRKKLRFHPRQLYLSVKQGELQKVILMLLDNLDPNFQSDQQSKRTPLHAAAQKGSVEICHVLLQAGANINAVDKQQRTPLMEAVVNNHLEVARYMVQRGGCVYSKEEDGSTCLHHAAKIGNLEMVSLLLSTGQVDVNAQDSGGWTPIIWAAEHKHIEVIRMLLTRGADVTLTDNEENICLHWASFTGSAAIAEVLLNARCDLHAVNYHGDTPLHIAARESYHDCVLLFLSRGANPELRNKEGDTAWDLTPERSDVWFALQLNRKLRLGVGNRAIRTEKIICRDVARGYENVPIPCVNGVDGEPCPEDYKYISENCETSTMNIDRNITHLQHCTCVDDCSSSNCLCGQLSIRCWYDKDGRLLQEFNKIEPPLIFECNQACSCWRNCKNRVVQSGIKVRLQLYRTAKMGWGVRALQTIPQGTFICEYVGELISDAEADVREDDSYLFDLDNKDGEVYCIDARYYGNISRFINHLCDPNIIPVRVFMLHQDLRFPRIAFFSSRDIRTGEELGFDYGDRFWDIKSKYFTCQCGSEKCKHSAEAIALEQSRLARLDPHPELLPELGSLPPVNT
T1 sequence (Q9H9B1 2-1298 limits assumed): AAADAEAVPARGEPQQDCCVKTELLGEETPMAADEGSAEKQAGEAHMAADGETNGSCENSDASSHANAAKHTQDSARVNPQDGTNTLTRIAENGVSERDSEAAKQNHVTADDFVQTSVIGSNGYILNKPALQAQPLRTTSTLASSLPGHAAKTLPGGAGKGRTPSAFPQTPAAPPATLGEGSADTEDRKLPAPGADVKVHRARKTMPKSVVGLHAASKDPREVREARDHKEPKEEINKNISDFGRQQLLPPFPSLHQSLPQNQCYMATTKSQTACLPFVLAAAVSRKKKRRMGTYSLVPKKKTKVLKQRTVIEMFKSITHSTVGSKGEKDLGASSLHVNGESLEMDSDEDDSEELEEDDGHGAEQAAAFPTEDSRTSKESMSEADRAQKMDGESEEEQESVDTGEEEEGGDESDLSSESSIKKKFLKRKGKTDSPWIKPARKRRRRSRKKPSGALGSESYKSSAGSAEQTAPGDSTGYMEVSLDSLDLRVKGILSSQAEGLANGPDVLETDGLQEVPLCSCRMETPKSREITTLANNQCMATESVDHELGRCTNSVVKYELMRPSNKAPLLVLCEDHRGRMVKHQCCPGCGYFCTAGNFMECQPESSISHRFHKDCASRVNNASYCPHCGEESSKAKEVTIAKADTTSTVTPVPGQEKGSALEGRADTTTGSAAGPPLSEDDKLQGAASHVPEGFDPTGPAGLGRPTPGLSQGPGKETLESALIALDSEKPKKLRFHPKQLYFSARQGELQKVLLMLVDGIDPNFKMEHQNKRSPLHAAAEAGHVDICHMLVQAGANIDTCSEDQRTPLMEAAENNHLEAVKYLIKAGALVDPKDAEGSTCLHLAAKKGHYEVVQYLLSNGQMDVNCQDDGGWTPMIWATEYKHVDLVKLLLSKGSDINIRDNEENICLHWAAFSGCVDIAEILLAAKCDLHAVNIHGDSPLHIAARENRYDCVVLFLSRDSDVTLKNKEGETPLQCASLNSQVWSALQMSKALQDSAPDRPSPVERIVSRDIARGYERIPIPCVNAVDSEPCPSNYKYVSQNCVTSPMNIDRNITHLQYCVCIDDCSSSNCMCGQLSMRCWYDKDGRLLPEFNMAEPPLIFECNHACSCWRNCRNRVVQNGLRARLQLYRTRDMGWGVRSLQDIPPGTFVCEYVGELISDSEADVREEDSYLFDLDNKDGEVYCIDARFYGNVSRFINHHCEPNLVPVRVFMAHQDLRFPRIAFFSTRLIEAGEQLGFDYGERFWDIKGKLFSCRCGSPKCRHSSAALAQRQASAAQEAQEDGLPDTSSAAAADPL

[3] = SILAC ratio, pull-down 3xMBT vs 3xMBTD355N
[4] = SILAC ratio DMSO/UNC0638 of protein pulled down with 3xMBT
[5] = SILAC ratio 3xMBT vs 3xMBTD355N pull-down, 293T cells, all values in log base 2
[6] = SILAC ratio DMSO relative to UNC0638, pull-down with 3xMBT, all values in log base 2

Substance | 3xMBT/D355N UNC Heavy [1, 3] | 3xMBT/D355N UNC Light [1, 3] | Relative to UNC0638 UNC Heavy [2, 4] | Relative to UNC0638 UNC Light [2, 4] | Relative to UNC0638 Average [2] | 3xMBT/D355N UNC Heavy [1, 5] | 3xMBT/D355N UNC Light [1, 5] | Relative to UNC0638 UNC Heavy [2, 6] | Relative to UNC0638 UNC Light [2, 6] | Relative to UNC0638 Average ([2]; all values in log base 2) | Protein Ratios 3xMBT/D355N ([1]; SILAC ratio, 293T cells) | Protein Ratios DMSO/UNC0638 [2] | Candidate G9a/GLP target ([2]; reduced association with 3xMBT after UNC0638 treatment)
PABPC1 | 2.91 log base 2 | 3.44 log base 2 | 0.04 log base 2 | 0.26 log base 2 | 0.15 log base 2 |  |  |  |  |  |  |  | 
MDC1 | 2.31 log base 2 | 2.83 log base 2 | 0.36 log base 2 | 0.11 log base 2 | 0.24 log base 2 |  |  |  |  |  |  |  | 
ILF2 | 3.72 log base 2 | 3.45 log base 2 | 0.15 log base 2 | 0.22 log base 2 | 0.18 log base 2 |  |  |  |  |  |  |  | 
STRAP |  |  |  |  |  | 1.61 log base 2 | 1.80 log base 2 | 0.24 log base 2 | −0.15 log base 2 | 0.05 log base 2 |  |  | 
DHX9 | 3.27 log base 2 | 3.53 log base 2 | 0.08 log base 2 | 0.28 log base 2 | 0.18 log base 2 |  |  |  |  |  |  |  | 
TUBB4B | 1.05 log base 2 | 1.75 log base 2 | 0.42 log base 2 | 0.03 log base 2 | 0.23 log base 2 |  |  |  |  |  |  |  | 
G6PD [Hit G6PD] |  |  |  |  |  | 0.75 log base 2 | 1.96 log base 2 | −0.20 log base 2 | −0.01 log base 2 | −0.10 log base 2 |  |  | 
DNMT1 | 1.70 log base 2 | 2.02 log base 2 | 0.46 log base 2 | −0.19 log base 2 | 0.13 log base 2 |  |  |  |  |  |  |  | 
HSPA8 | 2.05 log base 2 | 1.48 log base 2 | 0.28 log base 2 | 0.06 log base 2 | 0.17 log base 2 |  |  |  |  |  |  |  | 
60S ribosomal protein L5 |  |  |  |  |  |  |  |  |  |  | 2.3 | 1.4 | 
GRWD1 | 2.87 log base 2 | 2.55 log base 2 | 0.24 log base 2 | 0.09 log base 2 | 0.17 log base 2 |  |  |  |  |  |  |  | 
CAMK2D | 1.96 log base 2 | 2.82 log base 2 | 0.26 log base 2 | 0.27 log base 2 | 0.27 log base 2 |  |  |  |  |  |  |  | 
TRIP12 | 0.66 log base 2 | 1.34 log base 2 | 0.46 log base 2 | −0.24 log base 2 | 0.11 log base 2 |  |  |  |  |  |  |  | 
EPRS |  |  |  |  |  | 0.46 log base 2 | 1.98 log base 2 | −0.64 log base 2 | 0.63 log base 2 | −0.01 log base 2 |  |  | 
TUBB | 1.16 log base 2 | 1.42 log base 2 | 0.31 log base 2 | 0.14 log base 2 | 0.22 log base 2 |  |  |  |  |  |  |  | 
FAM98A | 2.99 log base 2 | 4.03 log base 2 | 0.57 log base 2 | 0.19 log base 2 | 0.38 log base 2 |  |  |  |  |  |  |  | 
RDBP |  |  |  |  |  | 2.37 log base 2 | 2.82 log base 2 | 0.32 log base 2 | −0.12 log base 2 | 0.10 log base 2 |  |  | 
CLTC | 2.19 log base 2 | 2.98 log base 2 | 0.24 log base 2 | 0.65 log base 2 | 0.44 log base 2 |  |  |  |  |  |  |  | ✓
DNA-binding protein A |  |  |  |  |  |  |  |  |  |  | 11.1 | 1.4 | 
SRSF3 | 2.63 log base 2 | 2.55 log base 2 | 0.25 log base 2 | 0.23 log base 2 | 0.24 log base 2 |  |  |  |  |  |  |  | 
TARDBP | 2.44 log base 2 | 2.40 log base 2 | 0.18 log base 2 | 0.21 log base 2 | 0.20 log base 2 |  |  |  |  |  |  |  | 
MK167 | 2.59 log base 2 | 2.26 log base 2 | 0.61 log base 2 | −0.25 log base 2 | 0.18 log base 2 |  |  |  |  |  |  |  | 
DIDO1 | 1.35 log base 2 | 3.36 log base 2 | 0.00 log base 2 | 0.37 log base 2 | 0.18 log base 2 |  |  |  |  |  |  |  | 

From US20140274782A1, “AFFINITY REAGENTS AND METHODS FOR DETECTION, PURIFICATION, AND PROTEOMIC ANALYSIS OF METHYLATED PROTEINS” (The Board of Trustees of the Leland Stanford Junior …, priority 2013, published 2014)
